# Measured values published in IntAct's records for PubMed 31515488.
# B1: Tuftelin-interacting protein 11 (Homo sapiens), Q9UBB9 (parent)
# chain: MSLSHLYRDGEGRIDDDDDERENFEITDWDLQNEFNPNRQRHWQTKEEATYGVWAERDSDDERPSFGGKRARDYSAPVNFISAGLKKGAAEEAELEDSDDEEKPVKQDDFPKDFGPRKLKTGGNFKPSQKGFAGGTKSFMDFGSWERHTKGIGQKLLQKMGYVPGRGLGKNAQGIINPIEAKQRKGKGAVGAYGSERTTQSMQDFPVVDSEEEAEEEFQKELSQWRKDPSGSKKKPKYSYKTVEELKAKGRISKKLTAPQKELSQVKVIDMTGREQKVYYSYSQISHKHNVPDDGLPLQSQQLPQSGKEAKAPGFALPELEHNLQLLIDLTEQEIIQNDRQLQYERDMVVNLFHELEKMTEVLDHEERVISNLSKVLEMVEECERRMQPDCSNPLTLDECARIFETLQDKYYEEYRMSDRVDLAVAIVYPLMKEYFKEWDPLKDCTYGTEIISKWKSLLENDQLLSHGGQDLSADAFHRLIWEVWMPFVRNIVTQWQPRNCDPMVDFLDSWVHIIPVWILDNILDQLIFPKLQKEVENWNPLTDTVPIHSWIHPWLPLMQARLEPLYSPIRSKLSSALQKWHPSDSSAKLILQPWKDVFTPGSWEAFMVKNIVPKLGMCLGELVINPHQQHMDAFYWVIDWEGMISVSSLVGLLEKHFFPKWLQVLCSWLSNSPNYEEITKWYLGWKSMFSDQVLAHPSVKDKFNEALDIMNRAVSSNVGAYMQPGARENIAYLTHTERRKDFQYEAMQERREAENMAQRGIGVAASSVPMNFKDLIETKAEEHNIVFMPVIGKRHEGKQLYTFGRIVIYIDRGVVFVQGEKTWVPTSLQSLIDMAK
# partner: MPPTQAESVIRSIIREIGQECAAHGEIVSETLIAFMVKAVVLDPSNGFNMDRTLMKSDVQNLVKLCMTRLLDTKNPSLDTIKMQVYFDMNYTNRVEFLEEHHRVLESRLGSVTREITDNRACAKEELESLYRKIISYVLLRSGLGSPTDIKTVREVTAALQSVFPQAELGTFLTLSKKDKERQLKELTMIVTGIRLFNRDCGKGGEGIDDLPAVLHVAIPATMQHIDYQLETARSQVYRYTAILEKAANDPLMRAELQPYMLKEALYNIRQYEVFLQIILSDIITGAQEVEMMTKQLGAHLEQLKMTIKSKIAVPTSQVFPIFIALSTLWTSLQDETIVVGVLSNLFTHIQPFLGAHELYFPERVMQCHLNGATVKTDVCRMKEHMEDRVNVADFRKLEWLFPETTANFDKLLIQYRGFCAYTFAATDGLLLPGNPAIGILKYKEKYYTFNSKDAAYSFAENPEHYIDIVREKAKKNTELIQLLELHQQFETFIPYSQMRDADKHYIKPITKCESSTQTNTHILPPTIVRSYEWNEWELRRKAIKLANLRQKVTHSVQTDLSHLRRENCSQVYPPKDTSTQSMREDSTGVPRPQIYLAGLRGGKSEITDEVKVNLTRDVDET
# B2: Bcl-2-interacting killer (Homo sapiens), Q13323 (parent)
# chain: MSEVRPLSRDILMETLLYEQLLEPPTMEVLGMTDSEEDLDPMEDFDSLECMEGSDALALRLACIGDEMDVSLRAPRLAQLSEVAMHSLGLAFIYDQTEDIRDVLRSFMDGFTTLKENIMRFWRSPNPGSWVSCEQVLLALLLLLALLLPLLSGGLHLLLK
# partner: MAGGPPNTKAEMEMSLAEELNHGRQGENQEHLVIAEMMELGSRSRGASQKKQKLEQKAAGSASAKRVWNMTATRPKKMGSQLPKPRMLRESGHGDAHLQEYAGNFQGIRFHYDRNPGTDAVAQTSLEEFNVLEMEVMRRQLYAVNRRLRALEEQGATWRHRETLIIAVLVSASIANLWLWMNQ
# B3: Zyxin (Homo sapiens), Q15942 (parent)
# chain: MAAPRPSPAISVSVSAPAFYAPQKKFGPVVAPKPKVNPFRPGDSEPPPAPGAQRAQMGRVGEIPPPPPEDFPLPPPPLAGDGDDAEGALGGAFPPPPPPIEESFPPAPLEEEIFPSPPPPPEEEGGPEAPIPPPPQPREKVSSIDLEIDSLSSLLDDMTKNDPFKARVSSGYVPPPVATPFSSKSSTKPAAGGTAPLPPWKSPSSSQPLPQVPAPAQSQTQFHVQPQPQPKPQVQLHVQSQTQPVSLANTQPRGPPASSPAPAPKFSPVTPKFTPVASKFSPGAPGGSGSQPNQKLGHPEALSAGTGSPQPPSFTYAQQREKPRVQEKQHPVPPPAQNQNQVRSPGAPGPLTLKEVEELEQLTQQLMQDMEHPQRQNVAVNELCGRCHQPLARAQPAVRALGQLFHIACFTCHQCAQQLQGQQFYSLEGAPYCEGCYTDTLEKCNTCGEPITDRMLRATGKAYHPHCFTCVVCARPLEGTSFIVDQANRPHCVPDYHKQYAPRCSVCSEPIMPEPGRDETVRVVALDKNFHMKCYKCEDCGKPLSIEADDNGCFPLDGHVLCRKCHTARAQT
# partner: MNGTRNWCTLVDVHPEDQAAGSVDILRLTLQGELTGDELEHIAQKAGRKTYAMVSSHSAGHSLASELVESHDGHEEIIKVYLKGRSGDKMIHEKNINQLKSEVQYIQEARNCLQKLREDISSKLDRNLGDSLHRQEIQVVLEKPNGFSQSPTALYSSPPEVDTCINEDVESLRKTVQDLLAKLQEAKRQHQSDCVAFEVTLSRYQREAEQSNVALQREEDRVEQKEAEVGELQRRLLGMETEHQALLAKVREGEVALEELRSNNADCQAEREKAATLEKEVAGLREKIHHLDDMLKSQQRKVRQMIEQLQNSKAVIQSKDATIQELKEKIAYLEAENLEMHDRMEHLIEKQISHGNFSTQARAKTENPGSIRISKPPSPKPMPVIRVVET
# B4: Paraneoplastic antigen-like protein 5 (Homo sapiens), Q96PV4 (parent)
# chain: MALTLLEDWCKGMDMDPRKALLIVGIPMECSEVEIQDTVKAGLQPLCAYRVLGRMFRREDNAKAVFIELADTVNYTTLPSHIPGKGGSWEVVVKPRNPDDEFLSRLNYFLKDEGRSMTDVARALGCCSLPAESLDAEVMPQVRSPPLEPPKESMWYRKLKVFSGTASPSPGEETFEDWLEQVTEIMPIWQVSEVEKRRRLLESLRGPALSIMRVLQANNDSITVEQCLDALKQIFGDKEDFRASQFRFLQTSPKIGEKVSTFLLRLEPLLQKAVHKSPLSVRSTDMIRLKHLLARVAMTPALRGKLELLDQRGCPPNFLELMKLIRDEEEWENTEAVMKNKEKPSGRGRGASGRQARAEASVSAPQATVQARSFSDSSPQTIQGGLPPLVKRRRLLGSESTRGEDHGQATYPKAENQTPGREGPQAAGEELGNEAGAGAMSHPKPWET
# Variants of: B1
# Conditions: with cf206_human CFAP206, Q8IYR0
row,Variant,effect of a mutation on the interaction
1,S688L,with no effect
2,R8Q,with no effect

# Variants of: B2
# Conditions: with fate1_human FATE1, Q969F0
row,Variant,effect of a mutation on the interaction
1,MSEVRPLSRDILMETLLYEQLLEPPTMEVLGMTDSEEDLDPMEDFDSLECMEGSDALALRLACIGDEMEVSLRAPRLAQLSEVAMHSLGLAFIYDQTEDIRDVLRSFMDGFTTLKENIMRFWRSPNPGSWVSCEQVLLALLLLLALLLPLLSGGLHLLLK [D69E],with no effect

# Variants of: B3
# Conditions: with tuft1_human TUFT1, Q9NNX1
row,Variant,effect of a mutation on the interaction
1,MAAPRPSPAISVSVSAPAFYAPQKKFGPVVAPKPKVNPFRPGDSEPPPAPGAQRAQMGRVGEIPPPPPEDFPLPPPPLAGDGDDAEGALGGAFPPPPPPIEESFPPAPLEEEIFPSPPPPPEEEGGPEAPIPPPPQPREKVSSIDLEIDSLSSLLDDMTKNDPFKARVSSGYVPPPVATPFSSKSSTKPAAGGTAPLPPWKSPSSSQPLPQVPAPAQSQTQFLVQPQPQPKPQVQLHVQSQTQPVSLANTQPRGPPASSPAPAPKFSPVTPKFTPVASKFSPGAPGGSGSQPNQKLGHPEALSAGTGSPQPPSFTYAQQREKPRVQEKQHPVPPPAQNQNQVRSPGAPGPLTLKEVEELEQLTQQLMQDMEHPQRQNVAVNELCGRCHQPLARAQPAVRALGQLFHIACFTCHQCAQQLQGQQFYSLEGAPYCEGCYTDTLEKCNTCGEPITDRMLRATGKAYHPHCFTCVVCARPLEGTSFIVDQANRPHCVPDYHKQYAPRCSVCSEPIMPEPGRDETVRVVALDKNFHMKCYKCEDCGKPLSIEADDNGCFPLDGHVLCRKCHTARAQT [H223L],with no effect
2,MAAPRPSPAISVSVSAPAFYAPQKKFGPVVAPKPKVNPFRPGDSEPPPAPGAQRAQMGRVGEIPPPPPEDFPLPPPPLAGDGDDAEGALGGAFPPPPPPIEESFPPAPLEEEIFPSPPPPPEEEGGPEAPIPPPPQPREKVSSIDLEIDSLSSLLDDMTKNDPFKARVSSGYVPPPVATPFSSKSSTKPAAGGTAPLPPWKSPSSSQPLPQVPAPAQSQTQFHVQPQPQPKPQVQLHVQSQTQPVSLANTQPRGPPASSPAPAPKFSPVTPKFTPVASKFSPGAPGGSGSQPNQKLGHPEALSAGTGSPQPPSFTYAQQREKPRVQEKQHPVPPPAQNQNQVRSPGAPGPLTLKEVEELEQLTQQLMQDMEHPQRQNVAVNELCGRCHQPLARAQPAVRALGQLFHIACFTCHQCAQQLQGQQFYSLEGAPYCEGCYTDTLEKCNTCGEPITDRMLRATGKAYHPHCFTCVVCARPLEGTSFIVDQANRPHCVPDYHKQYAPRCSVCSEPIMPEPGRDETVRVVALDKNFHMKCYKCEDCGKPLSIEADDNGCFPLDGHVLCQKCHTARAQT [R563Q],with no effect

# Variants of: B4
# Conditions: with arpc4_human ARPC4, P59998
row,Variant,effect of a mutation on the interaction
1,L21Q,disrupting interaction strength
2,T261A,with no effect
3,V274M,with no effect

# Variants of: B4
# Conditions: with zfy26_human ZFYVE26, Q68DK2
# Chain of zfy26_human ZFYVE26, Q68DK2 (Q68DK2 whole entry): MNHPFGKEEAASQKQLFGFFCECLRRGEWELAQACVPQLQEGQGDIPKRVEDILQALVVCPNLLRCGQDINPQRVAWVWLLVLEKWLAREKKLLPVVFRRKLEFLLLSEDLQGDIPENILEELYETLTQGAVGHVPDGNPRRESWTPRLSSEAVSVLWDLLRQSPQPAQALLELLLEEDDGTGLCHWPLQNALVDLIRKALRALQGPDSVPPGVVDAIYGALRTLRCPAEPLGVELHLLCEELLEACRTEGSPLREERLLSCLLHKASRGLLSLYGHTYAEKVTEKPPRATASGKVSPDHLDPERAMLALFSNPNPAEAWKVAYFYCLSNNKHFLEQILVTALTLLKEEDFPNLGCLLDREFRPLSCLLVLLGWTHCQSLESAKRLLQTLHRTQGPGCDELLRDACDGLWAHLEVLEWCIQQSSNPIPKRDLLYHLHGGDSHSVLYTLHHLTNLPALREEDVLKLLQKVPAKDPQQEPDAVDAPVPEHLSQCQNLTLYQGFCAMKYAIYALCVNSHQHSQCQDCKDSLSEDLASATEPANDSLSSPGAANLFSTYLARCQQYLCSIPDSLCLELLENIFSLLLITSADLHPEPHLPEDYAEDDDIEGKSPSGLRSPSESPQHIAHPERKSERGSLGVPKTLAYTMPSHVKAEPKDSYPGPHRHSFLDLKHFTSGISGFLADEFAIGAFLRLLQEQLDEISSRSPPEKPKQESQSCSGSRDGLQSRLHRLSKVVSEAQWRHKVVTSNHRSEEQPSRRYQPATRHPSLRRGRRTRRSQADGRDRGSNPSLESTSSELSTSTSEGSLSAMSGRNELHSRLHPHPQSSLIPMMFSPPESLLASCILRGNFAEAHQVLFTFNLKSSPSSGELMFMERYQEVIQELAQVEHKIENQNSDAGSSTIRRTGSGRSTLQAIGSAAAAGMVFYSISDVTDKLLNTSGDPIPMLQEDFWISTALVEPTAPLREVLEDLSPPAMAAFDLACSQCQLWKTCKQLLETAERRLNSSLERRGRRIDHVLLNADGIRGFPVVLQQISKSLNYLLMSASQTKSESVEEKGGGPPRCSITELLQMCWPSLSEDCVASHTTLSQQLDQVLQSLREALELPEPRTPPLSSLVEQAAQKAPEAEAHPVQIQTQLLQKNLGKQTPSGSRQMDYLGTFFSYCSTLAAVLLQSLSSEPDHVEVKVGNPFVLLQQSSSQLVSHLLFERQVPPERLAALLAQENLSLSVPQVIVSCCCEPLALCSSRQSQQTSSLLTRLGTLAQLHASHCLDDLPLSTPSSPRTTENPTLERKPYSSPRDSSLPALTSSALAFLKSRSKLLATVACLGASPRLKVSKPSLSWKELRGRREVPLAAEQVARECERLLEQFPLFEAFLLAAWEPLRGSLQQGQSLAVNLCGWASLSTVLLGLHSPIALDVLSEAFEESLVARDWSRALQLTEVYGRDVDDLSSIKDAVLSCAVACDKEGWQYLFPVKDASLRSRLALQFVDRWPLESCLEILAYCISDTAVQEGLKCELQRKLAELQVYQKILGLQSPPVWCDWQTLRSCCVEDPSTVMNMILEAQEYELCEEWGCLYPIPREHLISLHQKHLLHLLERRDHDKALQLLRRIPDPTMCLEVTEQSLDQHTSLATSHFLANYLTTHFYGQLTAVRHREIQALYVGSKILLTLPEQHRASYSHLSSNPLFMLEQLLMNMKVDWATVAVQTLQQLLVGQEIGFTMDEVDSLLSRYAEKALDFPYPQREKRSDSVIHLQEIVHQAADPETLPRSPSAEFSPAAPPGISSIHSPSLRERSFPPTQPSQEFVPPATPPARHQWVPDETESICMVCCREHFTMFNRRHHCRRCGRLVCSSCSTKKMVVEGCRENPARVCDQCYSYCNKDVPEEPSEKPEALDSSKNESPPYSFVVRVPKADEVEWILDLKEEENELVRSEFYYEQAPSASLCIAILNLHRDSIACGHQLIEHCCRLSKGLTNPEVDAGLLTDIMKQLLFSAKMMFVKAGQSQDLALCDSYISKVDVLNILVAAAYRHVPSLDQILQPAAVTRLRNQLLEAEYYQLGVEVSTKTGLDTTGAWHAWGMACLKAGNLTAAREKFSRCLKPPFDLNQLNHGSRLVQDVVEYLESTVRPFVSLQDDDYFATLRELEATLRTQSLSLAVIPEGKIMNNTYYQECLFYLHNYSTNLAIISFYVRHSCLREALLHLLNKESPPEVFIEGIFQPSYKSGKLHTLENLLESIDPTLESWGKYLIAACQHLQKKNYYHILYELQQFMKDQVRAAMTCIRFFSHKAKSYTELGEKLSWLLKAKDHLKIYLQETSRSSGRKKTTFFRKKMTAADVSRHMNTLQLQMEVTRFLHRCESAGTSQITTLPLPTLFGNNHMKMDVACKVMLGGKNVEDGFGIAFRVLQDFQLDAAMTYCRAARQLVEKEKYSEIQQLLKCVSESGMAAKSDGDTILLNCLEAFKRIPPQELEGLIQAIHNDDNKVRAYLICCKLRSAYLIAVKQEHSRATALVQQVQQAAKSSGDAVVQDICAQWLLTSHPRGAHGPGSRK
row,Variant,effect of a mutation on the interaction
1,L21Q,disrupting interaction strength
2,T261A,with no effect
3,V274M,with no effect

# Variants of: B4
# Conditions: with ccnc_human CCNC
row,Variant,effect of a mutation on the interaction
1,L21Q,disrupting interaction strength
2,T261A,with no effect
3,V274M,with no effect

# Variants of: B4
# Conditions: with aapk1_human PRKAA1, Q13131
# Chain of aapk1_human PRKAA1, Q13131 (Q13131 whole entry, looked up): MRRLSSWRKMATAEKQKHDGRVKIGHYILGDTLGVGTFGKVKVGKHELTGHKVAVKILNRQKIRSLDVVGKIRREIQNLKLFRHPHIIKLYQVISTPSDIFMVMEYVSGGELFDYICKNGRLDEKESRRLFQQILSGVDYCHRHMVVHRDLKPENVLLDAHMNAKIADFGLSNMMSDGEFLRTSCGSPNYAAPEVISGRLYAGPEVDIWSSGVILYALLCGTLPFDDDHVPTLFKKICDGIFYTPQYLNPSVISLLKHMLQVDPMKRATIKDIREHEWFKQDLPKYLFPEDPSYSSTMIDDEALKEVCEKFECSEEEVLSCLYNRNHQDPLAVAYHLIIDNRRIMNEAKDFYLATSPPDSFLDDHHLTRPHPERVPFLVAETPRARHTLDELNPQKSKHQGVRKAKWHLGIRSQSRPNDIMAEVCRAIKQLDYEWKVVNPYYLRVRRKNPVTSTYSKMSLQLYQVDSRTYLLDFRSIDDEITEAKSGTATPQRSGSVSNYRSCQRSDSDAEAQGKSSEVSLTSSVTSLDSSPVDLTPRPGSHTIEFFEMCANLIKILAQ
row,Variant,effect of a mutation on the interaction
1,L21Q,disrupting interaction strength
2,T261A,with no effect
3,V274M,with no effect
